# Results: PMC3514274, “Recombinant sterol esterase from Ophiostoma piceae: an improved biocatalyst expressed in Pichia pastoris” (Microbial Cell Factories, 2012)
# What was measured:
# [1] = target: deglycosylated recombinant sterol esterase from Ophiostoma piceae (OPE* treated with Endo H in non-denaturing conditions) (Ophiostoma piceae); assay: AUC; sedimentation velocity; purified protein 200 μg/mL in 25 mM sodium phosphate buffer pH 7.0, aqueous solution without detergent
# [2] = target: recombinant sterol esterase from Ophiostoma piceae expressed in Pichia pastoris (Ophiostoma piceae); assay: AUC; sedimentation equilibrium; purified protein 200 μg/mL in 25 mM sodium phosphate buffer pH 7.0, aqueous solution without detergent
# [3] = target: recombinant sterol esterase from Ophiostoma piceae expressed in Pichia pastoris (Ophiostoma piceae); assay: AUC; sedimentation velocity; purified protein 200 μg/mL in 25 mM sodium phosphate buffer pH 7.0, aqueous solution without detergent
# [4] = substrate: CCCCCCCCCCCCCCCC(=O)Oc1ccc([N+](=O)[O-])cc1; assay: purified protein; format: biochemical, Ophiostoma piceae; conditions: 100 mM sodium phosphate pH 7.0, 0.15 M NaCl, 1% (v/v) Genapol X-100, 25°C
# [5] = substrate: CCCCC/C=C\C/C=C\CCCCCCCC(=O)O[C@H]1CC[C@@]2(C)C(=CC[C@H]3[C@@H]4CC[C@H]([C@H](C)CCCC(C)C)[C@@]4(C)CC[C@@H]32)C1; assay: pH-stat titration of released fatty acid; format: biochemical, Ophiostoma piceae; conditions: 1 mM Tris-HCl pH 7.0, 0.15 M NaCl, 5% (v/v) Genapol X-100, 25°C, substrate emulsified in detergent
# Source text: (§1) pH-stat titration of released fatty acid on OPE* (recombinant sterol esterase from Ophiostoma piceae)
# [6] = substrate: CCCC(=O)O[C@H]1CC[C@@]2(C)C(=CC[C@H]3[C@@H]4CC[C@H]([C@H](C)CCCC(C)C)[C@@]4(C)CC[C@@H]32)C1; assay: pH-stat titration of released fatty acid; format: biochemical, Ophiostoma piceae; conditions: 1 mM Tris-HCl pH 7.0, 0.15 M NaCl, 5% (v/v) Genapol X-100, 25°C, substrate emulsified in detergent
# Source text: as §1
# [7] = substrate: CCCCCCCC/C=C\CCCCCCCC(=O)O[C@H]1CC[C@@]2(C)C(=CC[C@H]3[C@@H]4CC[C@H]([C@H](C)CCCC(C)C)[C@@]4(C)CC[C@@H]32)C1; assay: pH-stat titration of released fatty acid; format: biochemical, Ophiostoma piceae; conditions: 1 mM Tris-HCl pH 7.0, 0.15 M NaCl, 5% (v/v) Genapol X-100, 25°C, substrate emulsified in detergent
# Source text: as §1
# [8] = substrate: CCCC(=O)OCC(COC(=O)CCC)OC(=O)CCC; assay: pH-stat titration of released fatty acid; format: biochemical, Ophiostoma piceae; conditions: 1 mM Tris-HCl pH 7.0, 0.15 M NaCl, 5% (v/v) Genapol X-100, 25°C, substrate emulsified in detergent
# Source text: as §1
# [9] = substrate: CCCCCCCC/C=C\CCCCCCCC(=O)OCC(COC(=O)CCCCCCC/C=C\CCCCCCCC)OC(=O)CCCCCCC/C=C\CCCCCCCC; assay: pH-stat titration of released fatty acid; format: biochemical, Ophiostoma piceae; conditions: 1 mM Tris-HCl pH 7.0, 0.15 M NaCl, 5% (v/v) Genapol X-100, 25°C, substrate emulsified in detergent
# Source text: as §1
molecule,measurement,setting,value
deglycosylated recombinant sterol esterase from Ophiostoma piceae (OPE* treated with Endo H in non-denaturing conditions) (enzyme),stoichiometry N,[1],2
recombinant sterol esterase from Ophiostoma piceae expressed in Pichia pastoris (enzyme),stoichiometry N,[2],2
same,stoichiometry N,[3],2
"OPE* (recombinant sterol esterase from Ophiostoma piceae) (Ophiostoma piceae) (protein, N-terminus (EA)EAYVEF + TTVNVNYPE (6 or 8 extra residues, mixed); monomer/dimer, monomeric in Genapol X-100) TTVNVNYPEGEVVGVSVLGIESFRGVPFAQPPVGNLRLKPPVRYTENIGTKDTTGIGPSCPQMYLSTGNGELLFQLVGNLINIPLFQTATLSSEDCLTLNIQRPAGTTSNSSLPVLFWIFGGGFELGTNQYYDGIDLLTEGISLGEPFIFVAINYRVGGFGFLGGKEIKADGSSNLGLLDQRIALEWVADNIASFGGDPSKVTIWGESAGSISVFDQMALYGGNNKYKGKALFRGGIMNSGSVVPAAPVDGVKAQAIYDHVVSEAGCAGTSDTLACLRTVDYTKFLTAVNSVPGIVSYSSIALSYLPRPDGVVLIDSPEEIVKNKQYAAVPMIIGDQEDEGTLFAVLPNNITSTAKIVQYFQDLYFYNATKEQLTAFVNTYPTDITAGSPFNTGIFNELYPGFKRLAAILGDMTFTLARRAFLQLCSEVNPDVPSWSYLASYDYGFPFLGTFHATDILQVFYGVLPNYASGSIQKYYINFVTTGDPNKGAAVDIQWPQWSAKKNILQIYATKAVIVADNFRAKSYEYLYNNIGIFRI",Km,[4],370 ± 30 µM
same,kcat,[4],1049 ± 28 s⁻¹
same,kcat/Km,[4],2.88e+06 M⁻¹ s⁻¹
same,Km,[5],710 ± 90 µM
same,kcat,[5],798 ± 25 s⁻¹
same,kcat/Km,[5],1.13e+06 M⁻¹ s⁻¹
same,Km,[6],1600 ± 200 µM
same,kcat,[6],212 ± 7 s⁻¹
same,kcat/Km,[6],133000 M⁻¹ s⁻¹
same,Km,[7],690 ± 100 µM
same,kcat,[7],631 ± 21 s⁻¹
same,kcat/Km,[7],918000 M⁻¹ s⁻¹
same,Km,[8],5100 ± 300 µM
same,kcat,[8],1041 ± 14 s⁻¹
same,kcat/Km,[8],204000 M⁻¹ s⁻¹
same,Km,[9],710 ± 90 µM
same,kcat,[9],1362 ± 41 s⁻¹
same,kcat/Km,[9],1.92e+06 M⁻¹ s⁻¹
